Measured values: patent US6531296B1, “Nuclear tyrosine kinase Rak” (The University of North Carolina at Chapel Hill, priority 1995, dated 2003)
Read-outs that look alike come from different tables or passages of the source.

T1: pRb (Homo sapiens, UniProt P06400)
T1 construct: incubated with cell lysates from SK-BR-3 breast cancer cells; endogenous in cells; host or cells: SK-BR-3
T1 sequence (P06400 1-928): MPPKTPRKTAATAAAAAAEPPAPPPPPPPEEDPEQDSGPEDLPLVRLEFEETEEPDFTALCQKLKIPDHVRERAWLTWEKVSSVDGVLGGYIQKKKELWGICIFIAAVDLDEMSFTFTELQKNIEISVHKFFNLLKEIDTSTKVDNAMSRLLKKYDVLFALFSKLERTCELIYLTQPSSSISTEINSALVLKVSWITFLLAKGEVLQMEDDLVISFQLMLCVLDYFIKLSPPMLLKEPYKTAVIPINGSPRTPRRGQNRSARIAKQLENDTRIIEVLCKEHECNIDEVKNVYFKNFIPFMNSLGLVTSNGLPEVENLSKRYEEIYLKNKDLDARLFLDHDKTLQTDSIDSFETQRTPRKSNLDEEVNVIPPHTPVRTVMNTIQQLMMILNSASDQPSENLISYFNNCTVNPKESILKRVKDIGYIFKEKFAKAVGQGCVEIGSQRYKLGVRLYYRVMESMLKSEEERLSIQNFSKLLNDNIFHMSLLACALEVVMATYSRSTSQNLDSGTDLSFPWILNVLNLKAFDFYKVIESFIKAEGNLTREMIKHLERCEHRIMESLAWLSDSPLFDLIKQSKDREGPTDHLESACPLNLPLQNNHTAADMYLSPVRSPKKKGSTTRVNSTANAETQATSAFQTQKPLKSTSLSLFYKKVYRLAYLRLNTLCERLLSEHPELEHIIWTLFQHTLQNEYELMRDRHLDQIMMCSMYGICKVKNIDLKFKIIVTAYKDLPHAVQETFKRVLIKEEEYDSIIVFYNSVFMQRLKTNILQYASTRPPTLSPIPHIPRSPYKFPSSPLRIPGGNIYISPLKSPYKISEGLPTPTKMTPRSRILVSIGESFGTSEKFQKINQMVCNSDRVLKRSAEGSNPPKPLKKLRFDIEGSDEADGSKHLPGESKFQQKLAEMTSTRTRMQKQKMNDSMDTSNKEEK

B1: Rak-NT:GST: first 110 amino acids of Rak (SEQ ID NO:2) as bacterial fusion protein with Glutathione-S transferase (protein)
chain: MSNICQRLWEYLEPYLPCLSTEADKSTVIENPGALCSPQSQRHGHYFVALFDYQARTAEDLSFRAGDKLQVLDTLHEGWWFARHLEKRRDGSSQQLQGYIPSNYVAEDRS
modifications: left off: a dimerising Fc or GST; large carriers; small tags and cut ends
B2: RAKΔ86:GST: RakNT GST fusion protein with amino acids 86-110 (CDC2 binding site) deleted (protein, UniProt P42685 1-85, looked up, fragment)
chain: MSNICQRLWEYLEPYLPCLSTEADKSTVIENPGALCSPQSQRHGHYFVALFDYQARTAEDLSFRAGDKLQVLDTLHEGWWFARHL
modifications: GST fusion

Columns and labels:
Shc = assay: Affinity precipitation from SK-BR-3 lysate with GST-RakNT; format: binding, human; details: SK-BR-3 cell lysate
Procedure: (§1) For affinity precipitations, 250 ug of cell lysate was pre-cleared once with 25 ul of glutathione-sepharose beads (Pharmacia) then once with 25 ul of the same beads containing 2 ug/ml Glutathione S-transferase. The lysate was then incubated with 25 ul of GST-RakNT bound to glutathione-sepharose, in a total volume of 500 ul of NP-40 lysis buffer, for 3 hours at 4° C. The beads were then washed three times in NP-40 Lysis Buffer and the bound proteins were eluted with SDS-PAGE sample loading buffer. pRb binding was assessed by Western blot analysis with the G3-245 antibody at 1 ug/ml.
(§2) Results and Discussion: To test whether Rak and pRb physically interact, the first 110 amino acids of Rak (first 110 amino acids of SEQ ID NO:2), where the predicted interacting peptides reside were prepared as a bacterial fusion protein with the Glutathione-S transferase gene (Rak-NT:GST), and incubated with cell lysates from SK-BR-3 breast cancer cells, and bound proteins were analyzed by Western blotting. Glutathione-S transferase alone was used as the control. […] In contrast, binding of Rak to proteins that interact with the SH3 domains of other members of the Src family, such as GAP-associated p62 or Shc, was not found (data not shown).

CDC2 [1] = biological target: T2, CDC2 (Homo sapiens, UniProt P06493); assay: Affinity precipitation from BT474 lysate with Rak N-terminal GST fusion protein; format: binding; parameters: endogenous in cells; host or cells: BT474; details: BT474 cell lysate
Procedure: as §1
(§3) Because the N-terminus is frequently responsible for protein-protein interactions in Src-related kinases, the proteins that bind to this region were characterized. The N-terminal 110 amino acids of Rak were expressed as a bacterial fusion protein with Glutathione S-transferase, and were incubated with cell lysates from BT474 breast cancer cells. In this assay, binding of RAK to the cyclin-dependent kinases Cdc2 and Cdk4 was detected, but binding to Cdk5, Cdk6, or Cdk7 was not detected (data not shown).

Cdk4 = biological target: T3, Cdk4 (Homo sapiens, UniProt P11802); assay: as above; format: binding; details: BT474 cell lysate
T3 construct: endogenous in cells; host or cells: BT474
Procedure: as §1, §3

Cdk7 = biological target: T4, Cdk7 (Homo sapiens, UniProt P50613); assay: as above; format: binding; details: BT474 cell lysate
T4 construct: endogenous in cells; host or cells: BT474
Procedure: as §1, §3

Cdk5 = biological target: T5, Cdk5 (Homo sapiens, UniProt Q00535); assay: as above; format: binding; details: BT474 cell lysate
T5 construct: endogenous in cells; host or cells: BT474
Procedure: as §1, §3

Cdk6 = biological target: T6, Cdk6 (Homo sapiens, UniProt Q00534); assay: as above; format: binding; details: BT474 cell lysate
T6 construct: endogenous in cells; host or cells: BT474
Procedure: as §1, §3

pRb = biological target: T1, pRb; assay: Affinity precipitation from SK-BR-3 lysate with GST-RakNT, Western blot for pRb; format: binding; details: SK-BR-3 cell lysate, GST alone as control
Procedure: Affinity Precipitations. DNA fragments encoding the amino terminal region of Rak were prepared using the polymerase chain reaction with Pyrococcus furiosus DNA polymerase (Stratagene), and cloned into the pGEX-4T plasmid (Pharmacia). Rb fusion proteins encoding amino acids 379-928 (RbABC, containing the A/B pocket region and the COOH-terminal domain) and 780-928 (RbC for COOH terminal domain only), were prepared similarly. The GST fusion proteins were induced and purified according to the manufacturer's instructions, and were analyzed by SDS-PAGE to ensure that an equal amount of protein was used for the affinity precipitation procedure.
For affinity precipitations, 250 ug of cell lysate was pre-cleared once with 25 ul of glutathione-sepharose beads (Pharmacia) then once with 25 ul of the same beads containing 2 ug/ml Glutathione S-transferase. […]
Results and Discussion: To test whether Rak and pRb physically interact, the first 110 amino acids of Rak (first 110 amino acids of SEQ ID NO:2), where the predicted interacting peptides reside were prepared as a bacterial fusion protein with the Glutathione-S transferase gene (Rak-NT:GST), and incubated with cell lysates from SK-BR-3 breast cancer cells, and bound proteins were analyzed by Western blotting. […]

GAP-associated p62 = biological target: T7, GAP-associated p62 (Homo sapiens, UniProt Q07666); assay: Affinity precipitation from SK-BR-3 lysate with GST-RakNT; format: binding; details: SK-BR-3 cell lysate
T7 construct: incubated with cell lysates from SK-BR-3 breast cancer cells; endogenous in cells; host or cells: SK-BR-3
Procedure: as §1, §2

CDC2 [2] = biological target: T2, CDC2; assay: In vitro kinase assay of immunoprecipitated CDC2 with Histone H1 as exogenous substrate; format: biochemical; parameters: incubated with immunoprecipitated CDC2; endogenous in cells
Procedure: The 110 N-terminal amino acids of Rak were produced as a GST fusion protein (RAKNT:GST) and incubated with immunoprecipitated CDC2, and subjected to an in vitro kinase assay with Histone H1 added as an exogenous substrate, and analyzed by SDS-PAGE. […] This fusion protein was incubated with immunoprecipitated CDC2, and subjected to an in vitro kinase assay with Histone H1 added as an exogenous substrate, and analyzed by SDS-PAGE.
The CDC2 binding domain of RAK appears to be between amino acids 86-110. Since the binding of RAK to CDC2 is exceptionally strong, the biological function of this interaction was explored.

T2 sequence (P06493 whole entry, the tested form may be a part): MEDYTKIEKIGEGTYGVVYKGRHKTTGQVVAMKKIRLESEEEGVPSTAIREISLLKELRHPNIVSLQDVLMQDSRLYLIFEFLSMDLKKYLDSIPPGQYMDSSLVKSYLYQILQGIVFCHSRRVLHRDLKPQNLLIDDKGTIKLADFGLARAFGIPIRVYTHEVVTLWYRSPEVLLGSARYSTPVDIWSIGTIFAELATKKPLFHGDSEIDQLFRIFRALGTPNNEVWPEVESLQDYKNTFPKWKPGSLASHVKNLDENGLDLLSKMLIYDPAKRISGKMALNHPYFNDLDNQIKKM
T3 sequence (P11802 whole entry): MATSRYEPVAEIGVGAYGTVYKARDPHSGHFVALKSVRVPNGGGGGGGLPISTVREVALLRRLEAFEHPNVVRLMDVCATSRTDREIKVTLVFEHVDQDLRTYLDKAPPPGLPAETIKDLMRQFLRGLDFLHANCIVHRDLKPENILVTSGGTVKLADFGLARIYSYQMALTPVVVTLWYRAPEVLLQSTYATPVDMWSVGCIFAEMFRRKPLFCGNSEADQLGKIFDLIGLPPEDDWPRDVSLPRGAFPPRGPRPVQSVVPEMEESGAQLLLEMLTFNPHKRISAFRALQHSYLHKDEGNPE
T5 sequence (Q00535 whole entry): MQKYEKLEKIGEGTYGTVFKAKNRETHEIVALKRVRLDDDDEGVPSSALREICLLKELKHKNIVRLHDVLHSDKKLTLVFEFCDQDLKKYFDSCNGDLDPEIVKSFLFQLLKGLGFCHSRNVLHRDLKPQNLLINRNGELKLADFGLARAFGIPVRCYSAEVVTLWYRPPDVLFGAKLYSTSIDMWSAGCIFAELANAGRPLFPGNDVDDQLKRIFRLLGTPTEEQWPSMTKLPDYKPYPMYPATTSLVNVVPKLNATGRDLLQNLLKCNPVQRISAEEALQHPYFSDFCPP
T7 sequence (Q07666 whole entry): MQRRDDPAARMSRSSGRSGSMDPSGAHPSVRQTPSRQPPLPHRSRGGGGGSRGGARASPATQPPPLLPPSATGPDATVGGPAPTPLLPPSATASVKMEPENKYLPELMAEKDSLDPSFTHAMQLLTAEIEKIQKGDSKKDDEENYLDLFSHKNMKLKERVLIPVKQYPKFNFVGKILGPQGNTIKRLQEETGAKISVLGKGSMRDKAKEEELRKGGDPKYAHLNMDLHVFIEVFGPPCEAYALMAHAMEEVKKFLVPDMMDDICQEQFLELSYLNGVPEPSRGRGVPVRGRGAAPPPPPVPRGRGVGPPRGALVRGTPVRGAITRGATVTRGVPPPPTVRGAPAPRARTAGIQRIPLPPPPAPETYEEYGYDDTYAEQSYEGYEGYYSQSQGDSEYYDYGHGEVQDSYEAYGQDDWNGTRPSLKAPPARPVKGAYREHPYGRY
T6 sequence (Q00534 whole entry): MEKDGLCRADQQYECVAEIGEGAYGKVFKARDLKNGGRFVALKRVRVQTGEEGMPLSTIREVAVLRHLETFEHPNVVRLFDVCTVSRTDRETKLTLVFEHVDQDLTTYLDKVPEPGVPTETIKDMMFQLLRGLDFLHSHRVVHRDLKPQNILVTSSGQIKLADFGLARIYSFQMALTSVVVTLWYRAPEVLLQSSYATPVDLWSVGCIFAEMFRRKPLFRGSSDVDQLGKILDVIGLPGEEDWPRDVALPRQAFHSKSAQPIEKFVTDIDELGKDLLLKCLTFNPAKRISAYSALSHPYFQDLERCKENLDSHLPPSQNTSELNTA
T4 sequence (P50613 whole entry): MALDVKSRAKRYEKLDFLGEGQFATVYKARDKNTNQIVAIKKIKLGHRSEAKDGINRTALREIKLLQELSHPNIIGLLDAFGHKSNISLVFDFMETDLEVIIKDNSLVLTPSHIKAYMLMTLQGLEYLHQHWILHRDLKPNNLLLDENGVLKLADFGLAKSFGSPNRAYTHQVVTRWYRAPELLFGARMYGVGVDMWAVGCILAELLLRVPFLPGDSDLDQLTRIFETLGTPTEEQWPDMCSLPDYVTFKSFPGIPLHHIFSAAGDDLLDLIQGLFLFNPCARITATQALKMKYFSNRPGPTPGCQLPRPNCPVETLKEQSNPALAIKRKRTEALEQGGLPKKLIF
Chain of Shc (P29353 156-583 limits assumed): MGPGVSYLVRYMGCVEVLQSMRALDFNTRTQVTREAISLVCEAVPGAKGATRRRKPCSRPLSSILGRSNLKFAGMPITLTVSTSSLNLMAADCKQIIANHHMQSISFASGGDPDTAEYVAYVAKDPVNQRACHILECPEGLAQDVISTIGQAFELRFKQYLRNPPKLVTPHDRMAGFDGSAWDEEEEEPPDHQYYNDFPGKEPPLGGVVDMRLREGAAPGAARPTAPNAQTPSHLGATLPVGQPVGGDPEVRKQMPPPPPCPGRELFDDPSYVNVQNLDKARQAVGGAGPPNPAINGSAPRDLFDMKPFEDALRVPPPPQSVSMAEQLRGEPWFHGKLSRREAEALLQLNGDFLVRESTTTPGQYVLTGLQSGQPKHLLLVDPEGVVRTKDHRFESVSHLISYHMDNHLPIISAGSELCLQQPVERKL

Molecule	binding to Shc (Shc)	binding to Cdc2 (CDC2 [1])	binding to Cdk4 (Cdk4)	binding to Cdk7 (Cdk7)	binding to Cdk5 (Cdk5)	binding to Cdk6 (Cdk6)	pRb binding (pRb)	binding to GAP-associated p62 (GAP-associated p62)	inhibition of CDC2 histone H1 phosphorylation activity (CDC2 [2]; listed as RAK-SH3:GST)	inhibition of CDC2 histone H1 phosphorylation activity (CDC2 [2]; listed as RakNT fusion protein)	inhibition of CDC2 histone H1 phosphorylation activity (CDC2 [2])
B1	not found	detected	detected	not detected	not detected	not detected	bound	not found	able to block CDC2 histone H1 activity	reduction of CDC2 histone H1 phosphorylation activity	–
B2	–	–	did not affect binding	–	–	–	–	–	–	–	greatly diminished CDC2 inhibitory activity
